From patent publication US20230203146A1 (Boehringer Ingelheim, published 2023)

Experiments:
[1] = target: T1, recombinant human Ang2-FLD (human, UniProt O15123 275-496, limits assumed); assay: SPR (Biacore T100), binder on CM5 chip, Ang2-FLD as analyte
T1 construct: domain: FLD; not used
T1 sequence (looked up): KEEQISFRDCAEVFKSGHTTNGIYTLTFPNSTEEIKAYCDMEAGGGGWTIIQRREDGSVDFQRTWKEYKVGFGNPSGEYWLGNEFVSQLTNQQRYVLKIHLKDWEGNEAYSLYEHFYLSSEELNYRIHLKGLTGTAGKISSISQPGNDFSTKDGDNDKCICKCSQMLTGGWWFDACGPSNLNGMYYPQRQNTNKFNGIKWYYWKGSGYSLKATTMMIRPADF
In short: (§1)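 Binders were immobilized by amine coupling onto a CM5 sensor chip, and Ang2-FLD from each species was passed over as analyte at 45 μL/min, with 2 min association and 20 min dissociation. Surfaces were regenerated between injections using a 10 sec 25 mM NaOH pulse and 60 sec stabilization. Rate constants came from a 1:1 Langmuir fit, and KD was derived from them.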

[2] = target: T2, recombinant cynomolgus Ang2-FLD (cynomolgus); assay: as above
T2 construct: domain: FLD; also called cyno Ang2-FLD
In short: as §1

[3] = target: T3, recombinant mouse Ang2-FLD (mouse, UniProt O35608 275-496, limits assumed); assay: as above
T3 construct: domain: FLD
T3 sequence (looked up): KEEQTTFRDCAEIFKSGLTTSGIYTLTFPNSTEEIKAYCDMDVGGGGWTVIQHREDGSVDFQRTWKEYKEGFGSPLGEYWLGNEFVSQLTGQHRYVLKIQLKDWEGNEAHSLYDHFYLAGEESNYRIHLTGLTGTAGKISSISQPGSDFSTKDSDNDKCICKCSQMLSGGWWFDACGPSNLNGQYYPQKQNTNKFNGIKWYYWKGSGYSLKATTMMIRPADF
In short: as §1

[4] = target: T4, N-terminally FLAG-tagged mouse Ang2 (HEK293T conditioned medium) (mouse, UniProt O35608 19-496); assay: competition ELISA, FLAG-mAng2 on coated mTie2-Fc
T4 construct: may be a nucleotide entry; also called mAng2; FLAG-mAng2
T4 sequence: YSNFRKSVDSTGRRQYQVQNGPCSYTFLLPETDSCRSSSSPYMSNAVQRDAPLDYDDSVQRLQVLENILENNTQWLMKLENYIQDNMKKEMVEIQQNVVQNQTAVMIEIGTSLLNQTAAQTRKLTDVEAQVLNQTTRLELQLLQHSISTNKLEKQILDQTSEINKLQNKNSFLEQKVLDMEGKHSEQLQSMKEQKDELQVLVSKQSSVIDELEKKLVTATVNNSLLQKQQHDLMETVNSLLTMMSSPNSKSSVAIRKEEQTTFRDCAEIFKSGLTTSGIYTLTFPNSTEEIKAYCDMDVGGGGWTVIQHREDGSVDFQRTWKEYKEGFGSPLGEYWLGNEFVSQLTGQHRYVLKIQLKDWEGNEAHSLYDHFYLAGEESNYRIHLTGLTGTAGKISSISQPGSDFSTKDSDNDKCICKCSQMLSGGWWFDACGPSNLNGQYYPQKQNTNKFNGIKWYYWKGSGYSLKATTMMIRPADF
Experimental: (§2) In brief, 2 μg/mL of recombinant mouse Tie2-Fc or cyno Tie2-Fc is coated overnight at 4° C. in a 96-well MaxiSorp plate (Nunc, Wiesbaden, Germany). Coated wells are blocked with a 1% casein solution.

[5] = target: T4, N-terminally FLAG-tagged mouse Ang2 …; assay: competition ELISA, periplasmic extract, FLAG-mAng2 on mTie2/Fc
Experimental: (§3) In brief, human Tie2/Fc chimera (R&D Systems, Minneapolis, Minn., USA) is biotinylated using N-hydroxysulfosuccinimide ester of biotin (Thermo Fisher Scientific, Rockford, Ill., USA). […] To this mixture, the Acceptor beads and 0.3 nM biotinylated human Tie2/Fc chimeras are added and further incubated for 2 hours at room temperature. Finally, streptavidin conjugated Donor beads (Perkin Elmer, Waltham, Mass., US) are added and the mixture is incubated for an additional 2 hours at room temperature. Assay buffer is PBS+0.03% Tween-20+0.1% BSA. Fluorescence is measured using the Envision Multilabel Plate reader (Perkin Elmer, Waltham, Mass., USA) using an excitation wavelength of 680 nm and an emission wavelength of 520 nm. […] In brief, human or mouse Tie2/Fc chimera (R&D Systems, Minneapolis, Minn., USA) are immobilized at 2 μg/mL overnight at 4° C. in a 96-well MaxiSorp plate (Nunc, Wiesbaden, Germany). Wells are blocked with a 1% casein solution. […] This mixture is added to the Tie2/Fc coated well and incubated for 2 hours at room temperature. Residual binding of Ang is detected using HRP-conjugated anti-FLAG M2 antibody (Sigma, St Louis, Mo., USA).

[6] = target: T5, N-terminally FLAG-tagged cynomolgus Ang2 (HEK293T conditioned medium) (cynomolgus, UniProt O15123 19-496 (human entry), limits assumed); assay: competition ELISA, FLAG-cAng2 on coated cTie2-Fc
T5 construct: may be a nucleotide entry; also called cAng2; FLAG-cAng2
T5 chain: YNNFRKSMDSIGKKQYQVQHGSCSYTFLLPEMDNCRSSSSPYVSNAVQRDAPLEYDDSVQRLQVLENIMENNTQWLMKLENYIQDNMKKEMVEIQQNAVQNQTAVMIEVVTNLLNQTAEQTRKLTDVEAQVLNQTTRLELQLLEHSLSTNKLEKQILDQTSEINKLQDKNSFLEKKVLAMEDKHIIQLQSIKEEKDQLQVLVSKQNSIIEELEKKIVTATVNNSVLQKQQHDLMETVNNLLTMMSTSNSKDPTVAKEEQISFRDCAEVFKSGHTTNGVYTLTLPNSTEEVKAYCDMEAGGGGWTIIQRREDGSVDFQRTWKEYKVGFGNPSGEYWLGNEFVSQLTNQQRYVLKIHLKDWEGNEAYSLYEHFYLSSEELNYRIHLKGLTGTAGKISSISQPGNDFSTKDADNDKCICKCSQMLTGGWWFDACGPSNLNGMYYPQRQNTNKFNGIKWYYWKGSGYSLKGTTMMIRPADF
Experimental: as §2

[7] = target: T6, FLAG-tagged recombinant human Ang1 (Alexis Biochemicals) (human, UniProt Q15389 20-498, limits assumed); assay: competition ELISA, periplasmic extract, FLAG-hAng1 on hTie2/Fc
T6 construct: Bought reagent; also called hAng1; FLAG-hAng1
T6 sequence (looked up): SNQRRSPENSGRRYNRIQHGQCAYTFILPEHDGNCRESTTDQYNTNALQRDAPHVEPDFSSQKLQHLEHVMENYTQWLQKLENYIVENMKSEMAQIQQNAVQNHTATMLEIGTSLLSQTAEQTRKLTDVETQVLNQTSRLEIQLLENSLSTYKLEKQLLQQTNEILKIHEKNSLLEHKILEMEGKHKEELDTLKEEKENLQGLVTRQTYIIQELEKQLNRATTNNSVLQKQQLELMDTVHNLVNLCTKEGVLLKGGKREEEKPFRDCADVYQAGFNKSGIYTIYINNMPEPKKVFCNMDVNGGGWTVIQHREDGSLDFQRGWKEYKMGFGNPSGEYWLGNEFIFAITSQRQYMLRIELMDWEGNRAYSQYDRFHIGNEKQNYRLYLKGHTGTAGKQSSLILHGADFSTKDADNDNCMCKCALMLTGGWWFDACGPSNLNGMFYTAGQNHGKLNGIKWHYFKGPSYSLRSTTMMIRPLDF
Experimental: as §3

[8] = target: T6, FLAG-tagged recombinant human Ang1 …; assay: ratio of IC50 in hAng1/hTie2 ELISA to IC50 in hAng2/hTie2 ELISA
Experimental: In brief, 2 μg/mL of Tie2/Fc chimera (R&D Systems, Minneapolis, Minn., USA) is coated in a 96-well MaxiSorp plate (Nunc, Wiesbaden, Germany).
In brief, 2 μg/mL of recombinant human Tie2-Fc (R&D Systems, Minneapolis, Minn., USA) is coated overnight at 4° C. in a 96-well MaxiSorp plate (Nunc, Wiesbaden, Germany). Coated wells are blocked with a 1% casein solution.

[9] = target: T1, recombinant human Ang2-FLD; assay: ProteOn off-rate assay, periplasmic extracts over coated human Ang2-FLD
Experimental: In a first cycle, amino acid substitutions are introduced randomly in both framework (FW) and complementary determining regions (CDR) using the error-prone PCR method. […] After a polish step, PCR products are inserted via unique restriction sites into a vector designed to facilitate phage display of the VHH library. […] Periplasmic extract of affinity matured clones is diluted 1:10 and injected across the “analyte channels” A1-A6.

B1: VHH 28D10 (VHH)
VHH: EVQLVESGGGLVQAGGSLRLSCAASGFTLDDYAIGWFRQAPGKEREGVSCIRDSDGSTYYADSVKGRFTISSDNDKNTVYLQMNSLKPEDTAVYYCAAVPAGRLRFGEQWYPLYEYDAWGQGTQVTVSS
notes: also called 028D10; not shown: C-terminal c-myc tag and His6 tag
Kd [1]: 1.3 nM | koff [1]: 0.0062 s⁻¹ | kon [1]: 4.9e+06 M⁻¹ s⁻¹ | Kd [2]: 1.4 nM | koff [2]: 0.025 s⁻¹ | kon [2]: 1.8e+07 M⁻¹ s⁻¹ | Kd [3]: 5.6 nM | koff [3]: 0.011 s⁻¹ | kon [3]: 1.9e+06 M⁻¹ s⁻¹ | IC50 [4]: 6.1 nM | % inh [5]: 93% | IC50 [6]: 2 nM | % inh [7]: 4% | hAng1/hAng2 ratio [8]: > 3080

B2: variant(s) of VHH 00027 carrying A24V (VHH, name in Kabat numbering)
VHH: EVQLVESGGGLVQAGGSLRLSCAVSGFTLDDYAIGWFRQAPGKEREGVSSIRDNDGSTYYADSVKGRFTISSDNDKNTVYLQMNSLKPEDTAVYYCAAVPAGRLRFGEQWYPLYEYDAWGQGTLVTVSS
notes: not shown: C-terminal c-myc tag and His6 tag
fold improvement (off-rate against VHH 00027) [9]: 2 fold

B3: variant(s) of VHH 00027 carrying F27L and L100iI (VHH)
VHH: EVQLVESGGGLVQAGGSLRLSCAASGLTLDDYAIGWFRQAPGKEREGVSSIRDNDGSTYYADSVKGRFTISSDNDKNTVYLQMNSLKPEDTAVYYCAAVPAGRLRFGEQWYPIYEYDAWGQGTLVTVSS
notes: also called L100il
fold improvement (off-rate against VHH 00027) [9]: 9.4 fold
